According to PMC12135134:

Target: recombinant human IgG1 Fc fragment (recFc), residues 236–444 of the rituximab heavy chain, non-glycosylated homodimer (human)
Assay: crystal structure; co-crystal of the complex isolated by SEC after mixing affitin and Fc chain 4:1; hanging drop, 20 °C, 24% w/v PEG8000, 0.1 M Tris/HCl pH 8.5; space group P2_(1), 2.90 Å

- stoichiometry N (chains in the oligomer): 2
Substance: recombinant human IgG1 Fc fragment (recFc), residues 236–444 of the rituximab heavy chain, non-glycosylated homodimer (domain or fragment)
